The numbers were not newly measured in paper PMC10860761, which cites them from elsewhere.

pKd: −log10 of the molar value.

The target of one series is actin monomer (ADP) (UniProt P60010).
The target in a further series is actin monomer (ATP) (UniProt P60010).

Chain of Srv2/CAP WH2 (P17555 287-336): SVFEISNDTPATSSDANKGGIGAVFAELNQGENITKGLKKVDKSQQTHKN
Chain of Srv2/CAP CARP (P17555 369-526): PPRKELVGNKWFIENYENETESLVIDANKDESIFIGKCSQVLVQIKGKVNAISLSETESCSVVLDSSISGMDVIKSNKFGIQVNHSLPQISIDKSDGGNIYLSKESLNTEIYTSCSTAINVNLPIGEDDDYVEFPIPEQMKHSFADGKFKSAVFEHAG

Take Srv2/CAP CARP (from UniProt P17555): in the series with actin monomer (ADP), the pKd was 5.82.

On to Srv2/CAP WH2 (from UniProt P17555), for which the pKd in the series with actin monomer (ATP) was 6.00.

Broadly, the pKd is the negative decadic logarithm of the Kd, by convention in mol/L.
